In the RNAGym collection of RNA variant scans (doi:10.1093/nar/gkz1192) one finds self-cleavage data, which are given here for 34 variants.

The labels stand for the following.
B1: CPEB3 Ribozyme (parent)
chain: UAACAGGGGGCCACAGCAGAAGCGUUCACGUCGCAGCCCCUGUCAGAUUCUGGUGAAUCUGCGAAUUCUGCUGUAUAUCUC

This data set covers variants of B1. Briefly: self-cleavage, relative activity (ratio to wild type); higher = more cleavage; in vitro, sequencing. The method, boiled down: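 For each CPEB3 ribozyme variant, relative activity is its cleaved/total read fraction divided by the unmutated ribozyme's. Barcoded error-prone PCR libraries were transcribed by T7 RNA polymerase (5 hours, 37°C) and held in DNase I for 15 min before an EDTA stop, with cleavage occurring throughout. Template-switching reverse transcription and Illumina sequencing were used to read the RNAs. A 5-read minimum applied, and results are the mean of three batches.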
For UAACAAGGGGCCACAGCAGAAGCGUUCACGUCGCAGCCCCUGUCAGAUUCUGGUGAAUCUGCGUAUUCUGCUGUAUAUCUC, the self-cleavage was 0.2.
With UAACAGGGGGCCACAGCAGAAGCGUUCACGUCGGAGCCCCUGUAAGAUUCUGGUGAAUCUGCGAAUUCUGCUGUAUAUCUC the figure was 0.1.
With UAACAGGGGGCCACAGCAGAAGCGUGCACGCCGCAGCCCCUGUCAGAUUCUGGUGAAUCUGCGAAUUCUGCUGUAUAUCUC the figure was 0.25; with UAACAGGGGGCCACUGCAGAAGCGUUCACGUCGCAGUCCCUGUCAGAUUCUGGUGAAUCUGCGAAUUCUGCUGUAUAUCUC, 0.29; with UAACAGGGGGCCACAGCAGAAGCGUUCACGUCGCAGCCCCUGUCAGAUUCUGGUGAAUCUGCGAAUUCUGCUGUAUCUCUC, 0.98.
With UAACAGGGGGCCACAGCAGAAGCGUUCACGUCGCAGCCCCUGUCAGAUUCUGGUGAGUCUGCGAAAUCUGCUGUAUAUCUC the figure was 0.37; with UAACAGGGGGCCACAGCAUAAGCGUUCACGUCGCAGCCCCUGUCAGAUUCAGGUGAAUCUGCGAAUUCUGCUGUAUAUCUC, 0.18; with UAACAGGGGGCCACAGCUGAAGCGUUCACGUCGCAGCCCCUGUCAGAUUCUGGUGAAUCUGCGAAUUCUGCUGUAUAUCAC, 0.53.
In the case of UAACAGGGGGCCACAGCAGAAGCGUUCACGUCGCGGCCCCUGUCAGAUUCUGGUGAAUCUGCGAAAUCUGCUGUAUAUCUC, the self-cleavage is 1.34.
With UAACAGGGGGCCACAGCAGAAGCGUUCACGUCGCAGCCCCUGUCCGAUUCUGGUGAAUCUGCGAAUUCUGCUGUAUGUCUC the figure was 0.25; with UAACAGGGGGCCACGGCAGAAGCGUUCACGUCGCAGCUCCUGUCAGAUUCUGGUGAAUCUGCGAAUUCUGCUGUAUAUCUC, 0.81.
In the case of UAACAGGGGGCCACAGCAGAAGCGUUCACGUCGCAGCCCCUGUCAGAUUCCGGUGAAUCUGCGAAUUCUGCUGUAUAUAUC, the self-cleavage is 1.24.
With UAACAGGGGGCCACAGCAGAAGCGUUCACGUCGCAGCCCCUGUCAGAUUCUGGUGAACCUGCGAAUUCUGAUGUAUAUCUC the figure was 0.37; with UAACAGGGGGCCACAGCAGAAGCGUUCACGUCGCAGCCCCUAUCAGACUCUGGUGAAUCUGCGAAUUCUGCUGUAUAUCUC, 0.33.
With UAACAGGGGGCCACAGCAGAAGCGUUCACGUCGCAGCCCCUGUCAGAUUCUGGUGAAUCUGCGAAUUUUGCUGUAUAACUC the figure was 1.01; with UAACAGGGGGCCACAGCAGAAGCGUUCGCGUCGCAGCCCCUGUCAGAUUCUGGUGAAUCUGCGAAUUCUGCUGUACAUCUC, 0.67; with UAACAGGGGGCCACAGCAGAAGCGUUCACGUCGCAGCCCCUAUCAGAUUCUGGUGAAUCUGCGGAUUCUGCUGUAUAUCUC, 0.21.
With UAACAGGUGGCCACAGCAGGAGCGUUCACGUCGCAGCCCCUGUCAGAUUCUGGUGAAUCUGCGAAUUCUGCUGUAUAUCUC the figure was 0.17.
As to UAACGGGGGGCCACAGCUGAAGCGUUCACGUCGCAGCCCCUGUCAGAUUCUGGUGAAUCUGCGAAUUCUGCUGUAUAUCUC, the self-cleavage was 0.33.
With UAACAGGGGGCCACAGCAGAAGCGUUCACGUCGCAGCCCCUGUCAGUUUCUGGUGAAUCUGCGAAUUCUACUGUAUAUCUC the figure was 0.13.
With UAACAGGGGGCCACAGCAGAAGCGUUCACGUCGCAGCCCCUGUCAGAUUCUGGUGAAUCUGCGAAUUCUGCUGUAUACCCC the figure was 0.82; with UAACAGGGGGCCACAGCACAAGCGUUCACGUCGCAGCCCCUGUCAGAUUCUGGUGUAUCUGCGAAUUCUGCUGUAUAUCUC, 0.19.
With UAACAGGGGGCCGCAGCAGCAGCGUUCACGUCGCAGCCCCUGUCAGAUUCUGGUGAAUCUGCGAAUUCUGCUGUAUAUCUC the figure was 0.27.
Regarding UAACAGGGGGCCACAGCAGAAGCGUUCACGUCGCAGCCCCUGUCAGAUGCUGGCGAAUCUGCGAAUUCUGCUGUAUAUCUC, the self-cleavage came out at 0.44.
With UAACAGGGGGCCACAGCAGAAGCGUUCAUGUCGCAGCCCCUGUCAGAUUCUGGUGAAUCUGCGAAUUCUGCUGUAAAUCUC, the self-cleavage is 0.62.
UAACAGGGGGCCACAGCAGAAGCGUUCACGUCGCGGCCCCUGUCAGAUUCUGGUGGAUCUGCGAAUUCUGCUGUAUAUCUC: the self-cleavage worked out at 1.27.
With UAACAGGGGGGCACAGCAGAAGCGCUCACGUCGCAGCCCCUGUCAGAUUCUGGUGAAUCUGCGAAUUCUGCUGUAUAUCUC the figure was 0.22.
On to UAACAGGGGACCACAGCAGAAGCGUUCACGUCGCAGCCCCUGUCAGAUUCUGGUGAAUCUGCGAAUUCUGCUGUAUACCUC, for which the self-cleavage worked out at 0.24.
With UAACAGGGGGCCACAGCAGAAGCGUUCACGUCGCAGCCCCUGUCAGAUUCUGGUGAAUCUCCUAAUUCUGCUGUAUAUCUC the figure was 0.35; with UAACAGGGGGCCACAGCAGAAGCGUUCACGUAGCAGCCCCUGUCAGAUUCUGGUGAAUCUGCGAAUUCUGCAGUAUAUCUC, 0.12.
With UAACAGGGGGCAACAGCAGAAGCGUUCAUGUCGCAGCCCCUGUCAGAUUCUGGUGAAUCUGCGAAUUCUGCUGUAUAUCUC the figure was 0.7; with UAACAGGGGGCCACAGCAGAAGCGCUCACGUCGCAGCCCCUGUCAGAUUCUGGUGAUUCUGCGAAUUCUGCUGUAUAUCUC, 0.31.
With UAACAGGGGGCCACAGCAGAAGCGAUCACGUCGCAGCCCCUGUCAGAUUCUGGUGAUUCUGCGAAUUCUGCUGUAUAUCUC the figure was 0.18.
Turning to UAACAGGGGGCCACAGCAGAAGCGUUCACGUCGCAGCCCCUGUCAGAUUCUGUUGAAUCUGCGGAUUCUGCUGUAUAUCUC, the self-cleavage was determined as 0.97.
